According to publication PMC3702631 (Structure (London, England : 1993), 2013):

Target: the molecule itself
Assay: SEC

B1: full-length mouse TBK1 (GST tag cleaved) (enzyme, UniProt Q9WUN2 1-729, looked up)
chain: MQSTSNHLWLLSDILGQGATANVFRGRHKKTGDLYAVKVFNNISFLRPVDVQMREFEVLKKLNHKNIVKLFAIEEETTTRHKVLIMEFCPCGSLYTVLEEPSNAYGLPESEFLIVLRDVVGGMNHLRENGIVHRDIKPGNIMRVIGEDGQSVYKLTDFGAARELEDDEQFVSLYGTEEYLHPDMYERAVLRKDHQKKYGATVDLWSVGVTFYHAATGSLPFRPFEGPRRNKEVMYKIITGKPSGAISGVQKAENGPIDWSGDMPLSCSLSQGLQALLTPVLANILEADQEKCWGFDQFFAETSDVLHRMVIHVFSLQHMTAHKIYIHSYNTAAVFHELVYKQTKIVSSNQELIYEGRRLVLELGRLAQHFPKTTEENPIFVTSREQLNTVGLRYEKISLPKIHPRYDLDGDASMAKAVTGVVCYACRTASTLLLYQELMRKGVRWLVELVKDDYNETVHKKTEVVITLDFCIRNIEKTVKVYEKLMKVNLEAAELGEISDIHTKLLRLSSSQGTIESSLQDISSRLSPGGLLADTWAHQEGTHPRDRNVEKLQVLLNCITEIYYQFKKDKAERRLAYNEEQIHKFDKQKLYYHATKAMSHFSEECVRKYEAFKDKSEEWMRKMLHLRKQLLSLTNQCFDIEEEVSKYQDYTNELQETLPQKMLAASGGVKHAMAPIYPSSNTLVEMTLGMKKLKEEMEGVVKELAENNHILERFGSLTMDGGLRNVDCL
stoichiometry N: 2

B2: mouse TBK1 C-terminal truncation, residues 1-657 (GST tag cleaved) (domain or fragment, UniProt Q9WUN2 1-657, looked up)
chain: MQSTSNHLWLLSDILGQGATANVFRGRHKKTGDLYAVKVFNNISFLRPVDVQMREFEVLKKLNHKNIVKLFAIEEETTTRHKVLIMEFCPCGSLYTVLEEPSNAYGLPESEFLIVLRDVVGGMNHLRENGIVHRDIKPGNIMRVIGEDGQSVYKLTDFGAARELEDDEQFVSLYGTEEYLHPDMYERAVLRKDHQKKYGATVDLWSVGVTFYHAATGSLPFRPFEGPRRNKEVMYKIITGKPSGAISGVQKAENGPIDWSGDMPLSCSLSQGLQALLTPVLANILEADQEKCWGFDQFFAETSDVLHRMVIHVFSLQHMTAHKIYIHSYNTAAVFHELVYKQTKIVSSNQELIYEGRRLVLELGRLAQHFPKTTEENPIFVTSREQLNTVGLRYEKISLPKIHPRYDLDGDASMAKAVTGVVCYACRTASTLLLYQELMRKGVRWLVELVKDDYNETVHKKTEVVITLDFCIRNIEKTVKVYEKLMKVNLEAAELGEISDIHTKLLRLSSSQGTIESSLQDISSRLSPGGLLADTWAHQEGTHPRDRNVEKLQVLLNCITEIYYQFKKDKAERRLAYNEEQIHKFDKQKLYYHATKAMSHFSEECVRKYEAFKDKSEEWMRKMLHLRKQLLSLTNQCFDIEEEVSKYQDYTNELQET
stoichiometry N: 2
